According to patent US20130164214A1:

What was measured:
CD20 = CD20 (UniProt P11836); assay: cell-based or functional assay
[1] = biological target: CD74 (invariant chain, Ii) (human) (UniProt P04233); assay: cell-based or functional assay
CD74 (invariant chain, Ii) (human), sequence (P04233 whole entry, change not shown): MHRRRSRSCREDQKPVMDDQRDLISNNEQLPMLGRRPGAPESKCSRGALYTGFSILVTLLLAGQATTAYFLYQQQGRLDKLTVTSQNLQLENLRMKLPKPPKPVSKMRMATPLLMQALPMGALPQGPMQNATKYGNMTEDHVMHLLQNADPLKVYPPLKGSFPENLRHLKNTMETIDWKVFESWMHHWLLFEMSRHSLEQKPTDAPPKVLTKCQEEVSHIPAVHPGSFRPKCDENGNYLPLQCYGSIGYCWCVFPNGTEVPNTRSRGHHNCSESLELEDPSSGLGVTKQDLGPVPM

CD20, sequence (P11836 whole entry): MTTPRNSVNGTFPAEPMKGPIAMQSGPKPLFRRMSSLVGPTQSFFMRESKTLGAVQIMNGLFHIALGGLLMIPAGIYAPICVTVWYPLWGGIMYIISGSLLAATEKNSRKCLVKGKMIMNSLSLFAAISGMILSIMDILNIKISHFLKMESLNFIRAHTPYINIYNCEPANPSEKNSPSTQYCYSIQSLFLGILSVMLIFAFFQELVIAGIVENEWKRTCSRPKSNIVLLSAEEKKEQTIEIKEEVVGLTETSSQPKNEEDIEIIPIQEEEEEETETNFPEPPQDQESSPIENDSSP

reduction of live B cells in human PBMCs after 3 days with antibody, flow cytometry [1] [%]	reduction of live mDC2 in human PBMCs after 3 days with antibody, flow cytometry [1] [%]	Substance	in vitro cytotoxicity EC50, Daudi and Ramos NHL cell lines (CD20) [nM]	in vitro cytotoxicity EC50, Jeko-1 mantle cell lymphoma line (CD20) [nM]
–	–	20-Rap (hA20 IgG-AD2 with four copies of Rap-DDD2)	0.1	0.02
22	53.8	milatuzumab (humanized anti-CD74 LL1 antibody)	–	–
